What was measured:
[1] = molecular target: T1, Recombinant oncogenic HRAS (G12V; residues 1-166) (human, UniProt P01112 1-166); experiment: SPR (BIAcore 2000); HRASG12V-GppNp immobilised on CM5 chip, purified scFv as analyte; BIAcore, purified bacterial scFv in vitro; weak micromolar binding
T1 construct: range 1-166; ELISA and BIAcore: purified from bacteria and loaded with GppNp, a non-hydrolysable GTP analogue; Mammalian two-hybrid: codons 1-166 fused C-terminal to the GAL4 DBD (pM1-RASG12V); Yeast two-hybrid: truncated HRASG12V fused to the LexA DBD (pBTM116-RASG12V); The DBD parts are not written into the chain; also called HaRASG12V; Ha-RASG12V

[2] = molecular target: T2, LexA DBD (made from the empty pBTM 116 vector) (UniProt P0A7C2 1-202, limits assumed); experiment: yeast two-hybrid (His growth, β-gal); data not shown
T2 construct: domain: LexA DBD; Bait-only control in the yeast two-hybrid assay
T2 sequence (looked up): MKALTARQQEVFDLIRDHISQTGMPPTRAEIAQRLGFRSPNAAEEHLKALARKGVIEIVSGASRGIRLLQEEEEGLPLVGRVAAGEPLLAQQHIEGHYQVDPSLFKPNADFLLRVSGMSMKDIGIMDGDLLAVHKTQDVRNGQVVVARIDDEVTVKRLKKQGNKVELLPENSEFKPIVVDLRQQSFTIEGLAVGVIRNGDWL

[3] = molecular target: T1, Recombinant oncogenic HRAS (G12V; …); experiment: surface plasmon resonance (BIAcore 2000), HRASG12V-GppNp immobilised at about 1500 RU, purified scFv injected

B1: anti-RAS scFv I21 (scFv)
scFv: EVQLLESGGGLVQPGGSLRLSCAASGFTFSSYAMSWVRQAPGKGLEWVSTISYGGSNTNYADSVKARFTISRDNSKNTLYLQMNSLRAEDTAVYYCAKGNNAFDYWGQGTLVTVSSGGGGSGGGGSGGGGSTDIQMTQSPSSLSASVGDRVTITCRASQSISSYLNWYQQKPGKAPKLLIYNASALQSGVPSRFSGSGSGTDFTLTISSLQPEDFATYYCQQYTSTPRTFGQGTKVEIKR
notes: also called ICAb I21
In the case of B1, the Kd [1] is reported as 2160 nM, the binding result [2] is reported as “no binding” and the Kd [3] is reported as 1310 nM. For the same binder, the koff [3] was 0.0212 s⁻¹ and the kon [3] was 16700 M⁻¹ s⁻¹.
